Data on 41 sequences can be found in the nanobody polyreactivity screen of Harvey et al. (2022).

The nature of this data set: yeast display, Sf9 membrane polyspecificity reagent, FACS + sequencing; frameworks hold sequencing errors. In short, it runs like this: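 Sorting gates, low and high (top ~1%), were placed on anti-HA fluorescence to track expression and on streptavidin fluorescence to track reagent binding. A clone's polyreactivity label is taken from the gate it came out of. The reagent was 10% biotinylated, detergent-solubilized Sf9 membrane, applied for 1 hour at 4 °C to galactose-induced yeast display cells.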
For “QVQLVESGGGLVQAGGSLRLSCAASGFIFLYYAMGWYRQAPGKERELVAAITTRGGRTYYADSVKGRFTISRDNAKNTVYLQMNSLIPEDTAVYYCAADHLYWGLEYESWGQGTQVTVSS”, the “polyreactivity (PSR sort gate)” value was “low polyreactivity”.
As to “QVQLVESGGCLVQAGGSLRLSCAASGSTFVHNAMGWYRQAPGKERELVAAISESGGGTYYADSVKGRFTISRDNAKNTVYLQMNSLKPEDTAVYYCAAPPAGENWRDGGGYWGQGTQVTVSS”, the “polyreactivity (PSR sort gate)” value is “low polyreactivity”.
Turning to “QVQLEESGGGLVQAGGSLRLSCAASGSTFYAYAMGWYRQAPGKERELVAAIDSGGSTYYADSVKGRFTSSRDNAKNTVYLQMNSLKPEDTAVYYCAVRHRYTRAFWGRDYWGQGTQVTVSS”, the “polyreactivity (PSR sort gate)” value is given as “low polyreactivity”.
The entry for “QVQLVESGGGLVQAGGSLRLSCAASGLIFKFYPMGWYRQAPGKERELVASIRGSGDNTYYADSVKGRFTISRDNAKNTVYLQMNSLKPEDTAVYYCNARASYSWHGIRGKYDYWGQGTQVTVSS” is “high polyreactivity”.
The entry for “QVQLVESGGGLVQAGGSLRLSCADSGFIFWYYAMGWYRQAPGKERELVAAISWSGDSTYYADSVKWRFTISRDTANNTVYLQMNSLKPEDTAVYYCAVYDELDVFYNGYDYWGQGTQVTVSS” is “high polyreactivity”; for “QVQLVESGGGLVQAGGSLRLSCAASGSTFFLYSMGWYRPAPGKERELVAAINYIGGTYYADSVKGRFTISRDNAKNTVYLQMNSLKPEDTAVYYCAASYVGTIAGMDYWGQGTQVTVSS” it is “low polyreactivity”; for “QVQLVESGGGLVQAGGSLRLSCAASGRILTKYAMGWYRQAPGKERELVAAISDSGTGTYYADSVKGRFTISRDNAKNTVYLQMNSLKPEDTAVYYCHAQTRRTRTYHGHKYGYWGQGTQVTVSW” it is “high polyreactivity”.
As to “QVQLVESGGGLVQAGGSLRLSCAASGRNFSRYALGWYRQAPGKERELVAAINNGGSTYYADSVKGRFTISRDNAMNTVYLQMNSLKPEDTALYYCAKLWWSNFKPVEYWGQGTQVTVSS”, the “polyreactivity (PSR sort gate)” value is “low polyreactivity”.
On to “QVQLVESGGGLVQAGGSLRLSCAASGRTLRTYAMGWYRQAPGKERELVAAITSSGGRTYYADSVKGRFTISRDNAKNTVYLQMNSLKPEDTAVYYCAAARYYYGGDYWGQGTQVTVSS”, for which the “polyreactivity (PSR sort gate)” value is on record as “high polyreactivity”.
As for “QVQLVESGGGLVQAGGSLRLSCAASGSIFKPYAMAWYRQAPGKERELVAAINRGGTSTYYADSVKGRFTISRDNAKNTVYLQMNSLKPEDTAVYYCAKTYTEYSVTRSGARMDYWGQGAQVTVSS”, the entry is “low polyreactivity”; as for “QVQLVESGGGLVQAGGSLRLSCAASGRTFGYYAMGWYRQAPGKERELVATITFGGGSTYYADSVKGRFTISRDNAKNTVYLQMNSLKPEDTAVYYCAADTSVHSEVDYWGQGTQVTVSS”, “low polyreactivity”; as for “QVQLVESGGGLVQAGGSLRLSCAASGFTFTRNAMGWYRQAPGKEREFVAAITRSGGSTYYADSVKGRFTISRDNAKNTVYLQMNSLKPEDTAVYYCNKRSPSTIRFDYWGQGTQVTVSS”, “high polyreactivity”.
The entry for “QVQLVESGGGLVQAGGSLRLSCAASGYTFIVNAIGWYRQAPGKERQLVAAISRSGSSTRSADSVKWRFTISRDNAKNTVYLLMNRLKPEDTSVYYCAADLYSSEGRYYFWGQGTQVTVSS” is “high polyreactivity”; for “QVQLVESGGGLVQAGGSLRLSCAASGIIFYRYTMGWYRQAPGKERELVAAISSRGGSTYYADSVKGRFTISRDNAKNTVYLQMNSLKPEDTAVYYWNARSKRTARYNYWGQGTQVTVSS” it is “high polyreactivity”; for “QVQLVESGGGLVQAGGSLRLSCAASGSTFLYYAMGWYRPAPGKERELVAAIRWTAGSTYYADSVKGRFTISRDNAKNSVYLQMNSLKPEDTAVYYCAAVGYVRNYYTYEHWGQGTQVTVSS” it is “low polyreactivity”.
Take “QVQLVESGGGLVQAGGSLRLSCAASGTLSSYAMGWYRQAPGKERELVAAISLSGGSTYADSVKGRFTISRDNAKKSVYLQMNSLKPEDTAVYYCAKDWDVEITWSFSIYNYWGQGTHVTVSS”: the “polyreactivity (PSR sort gate)” value is on record as “low polyreactivity”.
The entry for “QVQLVESGGGLVQAGCSLRLSCAASGRILFGYAMGWYRQAPGKERELVAAITGSGDSTYYADSVKGRFTISRDNAKNAVYLQLYSLKPEDTAVYYCATEEVYGQGNYWGHGTQVTVSS” is “low polyreactivity”; for “QVQLVESGGGLVQAGGSLRLSCAASGSIFNRYAMGWFRQAPGKERELVAAISRRGAGTYYADSVKGRFTISRDNAKNTVYLQMNSLKPEDTAVYYCAATLSYTGSKRYDYWGQGTQVTVSS” it is “high polyreactivity”.
As for “QVQIVESGGGLFQAGGRLPLSCAASGSSFKINDMGWYRHAPGKERELVATITWSTGTTYYADSVKGLFTISRYNAKNTVYLKMNSLKPEYTAVYYCAADYCSYGYVLFDYWGQGTQVTVSS”, the entry is “low polyreactivity”.
In the case of “QEQLVESGGGLVQAGGSLRLSCAASGNTFSYNAMGWYRQAPGKEREVVAAISSRGVRTYYADSVKGRFTISRDNAKNTVYLQMNSLKPEDTAVYYCAADLWDWAYDYWGQGTQVTVSS”, the “polyreactivity (PSR sort gate)” value is given as “high polyreactivity”.
The entry for “QVQLVESGGGLVQAGGSLRLSCAASGSIFYRYAMGWSRPAPRKERELVAAISRSGGRTYYADSVKGRFTISRDISKKTVYLQMYSLKAEDTAVYYCADESNVGTDLGGDSWGQGTQVTVSS” is “high polyreactivity”.
As for “QVQLVESGGGLVQAGGSLRLSCAASGSIFYYNAMGWYRQAPGKERELVAAISVSGGSTYYADSVKGRFTISRDNAKNTVYLQMNSLKPEDTAVYYCAAEWLYYYWLPGRADYLEYDYWGQGTQVTVSS”, the entry is “low polyreactivity”; as for “QVQLVESAGGLVQAGRSHRLSFAASGSIFYHNAMGWYRQAPGKERELVAAISGRGGSTYYADSVKGRFTISRDNAKNTVYLQMNSLKPEDTAVYYCAADARYQNGGLYYWGQGTQVTVSS”, “high polyreactivity”.
The entry for “QVQLVESGGGLVQAGGSLRLSCAASGFTIFIYAMGWYRQAPGKEREFVAAITGSGGSTYYADSVKGRFTISRDNAKNTVYLQMNSLKPEDTAVYYCAAESEYVYWYYVDYDYWGQGTQVTVSS” is “high polyreactivity”.
With “QVQLVESGGGLVQAGGSLRLSSAASGSIFYRYAMGWYRQAPGKERELVAAITQSTDSTYYADSVKGRFTISRDNAKYNVYLQMNSLKPEDTAVYYCAAYLVYYRPYAYGYWGQGSQVTVSS”, the “polyreactivity (PSR sort gate)” value is on record as “low polyreactivity”.
As for “QVQLVESGGGLVQAGGSLRLSCAASGFTFNGYARGWYRQAPGKDRELVATMTNGGSTYYADSVKGRFTISRDNAKNTVYLQMNSLKPEDTAVYYCAAESEQATPGYLAPLFDYWGQGTQVTVSS”, the entry is “low polyreactivity”; as for “QVQLVESGGGLVQAGGSLRLSCAASGFIFRQYVMGWYRQAPGKERELVAAISWRTTSTYYADSVKGRFTISRDNAKNTVYLQMNSLKPEDTAVYYCAAPQVWWGYYTRGVDYWGQGTQVTVSS”, “low polyreactivity”; as for “QVQLEESVGGLVQAGGSLRLSCAASGFIFPYYTMGWYRQAPGKERELVAAISRTAVGTYYADSVKGRFTISRDNAKNTVYLQMNSLKPEDTAVYYCAVVTQRKYDYWGQGTQVTVSS”, “high polyreactivity”.
In the case of “QVQLVESGGGLVQAGGSLRLSCAASGSTFYVYAMGWYRQAPGNERELVAAITSGGSTNYADSVKGRFTISRDNAKNTVYLQMNSLKPEDTAVYYCAAQGRVWDSYGYEYVQEVTRDYWGQGTQVTVSS”, the “polyreactivity (PSR sort gate)” value was “low polyreactivity”.
As for “QVQLVDSGGGLVQAGGILRLSCAASGFILSDNAMGWYRQGPGKERELVAAINSGGSTYYADSVKGRFTISRDNAMNTVYLQMNSLKPEDTAVYYCAADFSTWLRAYDYWGQGTQVTVSS”, the entry is “low polyreactivity”.
As for “QVQLVESGGGLVQAGGSLRLSCAASGLIFQVYDMGWYRQAPGKERELVAAISSGSNTNYADSVKGRFTISRDNAKNTVYLQMNSLKPEDTAVYYCAASLGYGAMTPDMGYWGQVTQVTVSS”, the entry is “low polyreactivity”; as for “QVQLVESGGGLVQAGGSLRLSCAASGSTFVPYAMGWYRQAPGKERELVAAITTSGGNTYYADSVKGRFTISRDNAKNTVYLQMNSLKPEDTAVYYCAADTYRRFDYWGQGTQVTVSS”, “low polyreactivity”.
The entry for “QVQLVESGGGLVQAGGSLRLSSAASGLNFYWYAMGWSRQAPGKERELVAAISTAGSTNYADSVKGRFTISRDNAKNTVYLQMISLKPEDTAVYYCNARIAYRYSNYGYWGQGTQVTVSS” is “low polyreactivity”; for “QVQLVESGGGLVQAGGSLRLSCAASGFIFKVNAMGWYRQAPGKERGYVYADSVKGRFTISRDNAKNTVYLQMNSLKPEHTAVYYCAAEPGEGCDYWGQATQVTVSS” it is “low polyreactivity”; for “QVQLVESGGGLVQAGGSLRLICAASGSTFFSYAMGWYRPAPGKERQLVAAITRSGGSTYYADSVKGRFTISRDNAKNTVFLQMNSLKPEDTAVYYCNADLGIGYDYWGQGTHVTVSS” it is “high polyreactivity”.
Turning to “QVQLVESGGGLVQAGGSLRLSCAASGFIFYKYAMGWYRQAPGKEREFVAAISSRGSRTYYADSVKGRFTISRDNAKNTVYLQMNSLKPEDTAVYYCAAGYWARLYDYDYWGQGTQVTVSS”, the “polyreactivity (PSR sort gate)” value is recorded as “high polyreactivity”.
The entry for “QVQHVESGGGLVQAGGSLRLSCAASGGTFYSYAMGWYRQAPGKERELVAAISRRGGSTYYADSVKGRFTISRDNAKNTVYLQLNSLKPEDTAVYYCAAKGPSYGVTRMYYWGQGTQVTVSS” is “high polyreactivity”; for “QVQLVESGGGLVQAGGSLRLSCAASGSTFPQNAMGWYRQAPGKERELVAAISRSGGRTYYADSVKGRFTISRDNAKNTVYLQMNILKPEDTAVYYCNAGFYQKYDYWGQGTQVTVSS” it is “high polyreactivity”.
The entry for “QVQLVESGGGLVQAGGSLRLSCAASGRTFQRNAMGLYRQEPGKERELVAAISTRGGSTYYADSVKGRFTISRDNAKNTVYLQMNSLKPEDTAVYYCAKDPTLTRGYKEGGGYDYLGQGTQVTVSS” is “high polyreactivity”.
Turning to “QVQLVESCGGLVQAGGSLRLSCAASGLTFIFNAMGWYRQAPGKEREFVADISSGVNTNYADSVKGRFTISRDNAKNTVYLQMNSLKPEDTAVYYCNKDVNAYGGASIRGYTMYYWGQGTQVTVSS”, the “polyreactivity (PSR sort gate)” value is given as “low polyreactivity”.
As for “QVQLVESGGGLVQAGGSLRLSCAASGITIYYNAMGWYRQAPGKARELVAAITQSGGSTFYADSVKGRFTISRDNAKNTVYLQMNSLKPEDTAVYYWGQGTQVTVSS”, the entry is “low polyreactivity”.
